The values below come from patent US20030143656A1.

Bounds are passed on as bounds.

The target of assay [1] is GST-PDK1 I119A (human), O15530. As to the kind of experiment: cell-based or functional assay.
In assay [2] the target is 412E-p70 S6K-T2 (His-tagged, insect cells) (human) (UniProt P23443). In words: SPR, His-PDK1 injected over 412E-p70 S6K-T2 amine-coupled to a CM5 chip, steady state. Background: In SPR one partner is held on a chip, and binding of the other changes the refractive index at the surface.
Chain of 412E-p70 S6K-T2 (His-tagged, insect cells) (human) (P23443 other isoform, or with tags, fused parts or gaps): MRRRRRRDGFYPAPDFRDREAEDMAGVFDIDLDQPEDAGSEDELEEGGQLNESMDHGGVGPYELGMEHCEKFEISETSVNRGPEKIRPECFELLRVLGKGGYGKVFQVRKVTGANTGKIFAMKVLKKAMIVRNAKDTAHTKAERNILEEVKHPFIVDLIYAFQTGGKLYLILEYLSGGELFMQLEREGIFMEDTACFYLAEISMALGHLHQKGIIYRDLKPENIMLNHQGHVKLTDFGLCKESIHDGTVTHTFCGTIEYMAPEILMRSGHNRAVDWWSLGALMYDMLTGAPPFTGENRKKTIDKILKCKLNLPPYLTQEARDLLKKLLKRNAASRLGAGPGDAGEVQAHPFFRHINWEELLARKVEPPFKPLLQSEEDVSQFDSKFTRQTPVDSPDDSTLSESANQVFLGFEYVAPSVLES

B1: PIFtide (peptide)
peptide: REPRILSEEEQEMFRDFDYIADWC
With B1, in assay [1], the inhibition by 2 µM PIFtide of the activation of S6K1-T2[T412E] and SGK1[T422D] by the PDK1 mutant amounted to 50%; the inhibition by 35 µM PIFtide of the activation of S6K1-T2[T412E] and SGK1[T422D] by the PDK1 mutant is > 95%; the stimulation of the PDK1 mutant towards T308tide by PIF worked out at 2 fold.

B2: His-PDK1 (enzyme, human, UniProt O15530 52-556, looked up, not shown: small tags and cut ends)
chain: DGTAAEPRPGAGSLQHAQPPPQPRKKRPEDFKFGKILGEGSFSTVVLARELATSREYAIKILEKRHIIKENKVPYVTRERDVMSRLDHPFFVKLYFTFQDDEKLYFGLSYAKNGELLKYIRKIGSFDETCTRFYTAEIVSALEYLHGKGIIHRDLKPENILLNEDMHIQITDFGTAKVLSPESKQARANSFVGTAQYVSPELLTEKSACKSSDLWALGCIIYQLVAGLPPFRAGNEYLIFQKIIKLEYDFPEKFFPKARDLVEKLLVLDATKRLGCEEMEGYGPLKAHPFFESVTWENLHQQTPPKLTAYLPAMSEDDEDCYGNYDNLLSQFGCMQVSSSSSSHSLSASDTGLPQRSGSNIEQYIHDLDSNSFELDLQFSEDEKRLLLEKQAGGNPWHQFVENNLILKMGPVDKRKGLFARRRQLLLTEGPHLYYVDPVNKVLKGEIPWSQELRPEAKNFKTFFVHTPNRTYYLMDPSGNAHKWCRKIQEVWRQRYQSHPDAAVQ
As usually defined, the Kd is the concentration at which binding is half-saturated. A low value points to tighter binding. B2: the Kd in assay [2] worked out at 8 µM.
